This note sets out measurements from US20080267980A1 (MUSC FOUNDATION FOR RESEARCH DEVELOPMENT, published 2008).

Assay [1] addresses T1, Human C3dg-biotin (human, UniProt P01024 955-1303, biotin (site not stated) in the SPR experiments).
T1 construct: domain: C3dg; In the ELISA it is purified C3dg coated on wells; also called C3dg ligand; CR2 ligand C3dg
Put plainly: SPR (referred to). Here is the method: (§1) Kinetic analysis of the interaction of the CR2 fusion proteins with C3dg-biotin was performed using surface plasmon resonance (SPR) measurements made on a BIAcore 3000 instrument. Human C3dg-biotin, prepared as described (36), was bound to the surface of BIAcore streptavidin (SA) sensor chips by injecting C3dg-biotin at 50 μg/ml over the surface of one flow cell of the chip at 2 μl/minute for 20 minutes. The flow buffer was 0.5×PBS+0.05% Tween 20. The SPR signal from captured C3dg generated BIAcore response units ranging from 250-500. Control streptavidin-coated flow cells were run in the absence of protein. Binding was evaluated over a range of CR2 fusion protein concentrations (15.6-500 nM) in 0.5×PBS, 0.05% Tween 20 at 25° C. at a flow rate of 25 μl/minute. CR2 fusion protein samples were injected in 50 μl aliquots using the kinject command. Association of the fusion proteins with the ligand was monitored for 120 seconds, after which the complex was allowed to dissociate in the presence of buffer only for an additional 120 seconds. […] Binding data were fitted to a 1:1 Langmuir binding model using BIAevaluation Version 3.1 software (BIAcore) and evaluated for best fit by low residual and χ² values. […]
(§2) A comparison of the affinity of the different recombinant fusion proteins for the CR2 ligand C3dg was determined by surface plasmon resonance measurements. […]

The target of assay [2] is T1, Human C3dg-biotin. Put plainly: SPR, C3dg-biotin captured on streptavidin chip. Here is the method: as §1, §2
In general terms: SPR reads the build-up and loss of mass on a sensor chip optically.

Assay [3] addresses T1, Human C3dg-biotin. The assay can be described thus: SPR, biotinylated C3dg on streptavidin BIAcore chip. The procedure:
as §1, §2

The target in assay [4] is T1, Human C3dg-biotin. Put plainly: ELISA, wells coated with purified C3dg, anti-complement inhibitor antibodies. Here is the method: ELISA experiments were conducted as previously described. In ELISA experiments, CR2-containing constructs were added to wells coated with purified C3dg. Binding was detected by means of anti-complement inhibitor antibodies and enzyme-conjugated secondary antibodies. All CR2 containing constructs, but not sCD59 and sDAF bound to C3d.
On the technique in general: ELISA stands for enzyme-linked immunosorbent assay.

T1 sequence (P01024 955-1303 limits assumed): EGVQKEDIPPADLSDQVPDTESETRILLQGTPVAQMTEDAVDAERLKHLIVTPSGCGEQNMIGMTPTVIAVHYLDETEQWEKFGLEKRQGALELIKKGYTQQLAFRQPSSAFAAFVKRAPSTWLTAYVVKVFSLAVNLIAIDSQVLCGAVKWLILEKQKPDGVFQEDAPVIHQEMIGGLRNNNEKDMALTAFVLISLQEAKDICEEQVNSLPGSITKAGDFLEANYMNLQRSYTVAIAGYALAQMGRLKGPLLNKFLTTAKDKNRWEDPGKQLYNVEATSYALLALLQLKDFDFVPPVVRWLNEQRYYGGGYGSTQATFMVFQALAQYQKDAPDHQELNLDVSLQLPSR

B1: CR2-CD59 (other)
chain: ISCGSPPPILNGRISYYSTPIAVGTVIRYSCSGTFRLIGEKSLLCITKDKVDGTWDKPAPKCEYFNKYSSCPEPIVPGGYKIRGSTPYRHGDSVTFACKTNFSMNGNKSVWCQANNMWGPTRLPTCVSVFPLECPALPMIHNGHHTSENVGSIAPGLSVTYSCESGYLLVGEKIINCLSSGKWSAVPPTCEEARCKSLGRFPNGKVKEPPILRVGVTANFFCDEGYRLQGPPSSRCVIAGQGVAWTKMPVCSGGGGSLQCYNCPNPTADCKTAVNCSSDFDACLITKAGLQVYNKCWKFEHCNFNDVTTRLRENELTYYCCKKDLCNFNEQLEN
notes: also called CR2-human CD59; fusion protein with CR2 at the N-terminus
Regarding B1, the binding result in the assay with Human C3dg-biotin [1] is “binds”.

B2: soluble DAF (other, human, UniProt P08174 35-283, looked up)
chain: DCGLPPDVPNAQPALEGRTSFPEDTVITYKCEESFVKIPGEKDSVICLKGSQWSDIEEFCNRSCEVPTRLNSASLKQPYITQNYFPVGTVVEYECRPGYRREPSLSPKLTCLQNLKWSTAVEFCKKKSCPNPGEIRNGQIDVPGGILFGATISFSCNTGYKLFGSTSSFCLISGSSVQWSDPLPECREIYCPAPPQIDNGIIQGERDHYGYRQSVTYACNKGFTMIGEHSIYCTVNNDEGEWSGPPPEC
notes: range 1-249; also called sDAF; untargeted sDAF
As to B2, the binding result in the assay with Human C3dg-biotin [2] was “no binding”.

B3: soluble CD59 (other, human, UniProt P13987 26-102, looked up)
chain: LQCYNCPNPTADCKTAVNCSSDFDACLITKAGLQVYNKCWKFEHCNFNDVTTRLRENELTYYCCKKDLCNFNEQLEN
notes: also called sCD59; untargeted sCD59
B3: the binding result with Human C3dg-biotin [3] is on record as “no binding”.

B4: DAF-CR2 (other)
chain: DCGLPPDVPNAQPALEGRTSFPEDTVITYKCEESFVKIPGEKDSVICLKGSQWSDIEEFCNRSCEVPTRLNSASLKQPYITQNYFPVGTVVEYECRPGYRREPSLSPKLTCLQNLKWSTAVEFCKKKSCPNPGEIRNGQIDVPGGILFGATISFSCNTGYKLFGSTSSFCLISGSSVQWSDPLPECREIYCPAPPQIDNGIIQGERDHYGYRQSVTYACNKGFTMIGEHSIYCTVNNDEGEWSGPPPECRSSGGGGSGGGGSGGGGSISCGSPPPILNGRISYYSTPIAVGTVIRYSCSGTFRLIGEKSLLCITKDKVDGTWDKPAPKCEYFNKYSSCPEPIVPGGYKIRGSTPYRHGDSVTFACKTNFSMNGNKSVWCQANNMWGPTRLPTCVSVFPLECPALPMIHNGHHTSENVGSIAPGLSVTYSCESGYLLVGEKIINCLSSGKWSAVPPTCEEARCKSLGRFPNGKVKEPPILRVGVTANFFCDEGYRLQGPPSSRCVIAGQGVAWTKMPVC
notes: also called human DAF-CR2; fusion protein with CR2 at the C-terminus
For B4, in the assay with Human C3dg-biotin [4], the binding result is listed as “binds”.
